A short description of this data set: amyloid nucleation score (Sup35N fusion, yeast selection) (log enrichment); library NNK2; higher = more nucleation; inactive = no reads after selection. The essentials: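 Peptides of 20 random codons, each fused to Sup35N, were expressed in psi-negative yeast. Cells were induced with 100 μM copper sulfate for 24 hours and grown 7 days at 30°C on medium lacking adenine and uracil, and plasmid inserts before and after selection were Illumina-sequenced. Nucleation scores are DiMSum log enrichments of output over input reads, centred on the mode score of non-aggregating sequences, and sequences under 100 input reads were excluded.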

± gives the uncertainty stated by the source.

In the case of GSKALVSGGFVSGVKYGKAI, the amyloid nucleation score result is “inactive”.

As for HVLEVPPAYPTQTSGMNPNS, the amyloid nucleation score was -0.143 ± 0.76.

The substance NQITDMLIFWFVGIRWFYSE returned an amyloid nucleation score of 0.679 ± 0.81.

In turn, TLLDNRRGCVMSWRGFLWMR showed an amyloid nucleation score of -0.363 ± 0.65.

NARITVLGSHPWLCPGKVSV had an amyloid nucleation score of 1.06 ± 0.54.

As for VMNSVHVFQYTSCCLILVGL, the amyloid nucleation score is 6.945 ± 0.062.

In turn, VRLRASDKCLNV had an amyloid nucleation score of 1.59 ± 0.27.

In turn, LSYLHG displayed an amyloid nucleation score of -0.913 ± 0.63.

On to MGLWLDYDTHCYQNVVFKRT, for which the amyloid nucleation score amounted to 2.41 ± 0.091.

With VKEYYSTGSTWRLYWMWSDW, the amyloid nucleation score was found to be 0.282 ± 0.36.

The substance NYCYLFLTYCWVQRMSEGFS displayed an amyloid nucleation score of 2.88 ± 0.098.

Consider IWYLLFMVDLVKCHTMKTNR, for which the amyloid nucleation score stood at 0.686 ± 0.12.

NNIVIYDDLYNSMMALLWS gave an amyloid nucleation score of -1.25 ± 0.64.

Regarding TSHSCGYLWCSLV, the amyloid nucleation score worked out at 0.211 ± 0.61.

Consider ICSYSVAGCYRKYRASFSGE, for which the amyloid nucleation score entry was “inactive”.

NVRDSYVNNCMTKGPRLNGV gave an amyloid nucleation score of -0.686 ± 0.34.

Regarding YSRGMGVSNEMRDYFNKRDI, the amyloid nucleation score result was “inactive”.

For SMATTE, the amyloid nucleation score worked out at 8.377 ± 0.063.

For PIIFSLSTFSCNVYEIRSNG, the amyloid nucleation score worked out at 3.57 ± 0.093.

In the case of RFGLGINLLIGVRLLCLALL, the amyloid nucleation score worked out at 0.043 ± 1.

SCDLYDTKSESFWLPSNMGS gave an amyloid nucleation score of 0.73 ± 0.44.

Take CAIFVRERW: the amyloid nucleation score turned out to be 5.03 ± 0.089.

As to TDYQSVVDTVG, the amyloid nucleation score was determined as 0.019 ± 0.32.

On to RPVDPWLCRKWLVV, for which the amyloid nucleation score result is “inactive”.

Regarding DDVSHPHLKCIVWD, the amyloid nucleation score result was “inactive”.

For the substance NVGTEFVWIPYFYSAS, the amyloid nucleation score was 0.716 ± 0.66.

CFVVRE had an amyloid nucleation score of 0.404 ± 0.46.

On to TLETSNILFYGEDVKLSSQV, for which the amyloid nucleation score worked out at 0.078 ± 0.34.

In turn, SVPDFDRWAFTGRVQTYADC registered an amyloid nucleation score of -0.614 ± 0.79.

In the case of FNLMLI, the amyloid nucleation score entry was “inactive”.

Substance RRYYNAQHVVVYELEVESLS showed an amyloid nucleation score of 0.453 ± 0.66.

With CSCMKFWKFLLIRQSYKPGM, the amyloid nucleation score came to 2.16 ± 0.18.

As for PRILLQSLRI, the amyloid nucleation score was found to be 2.47 ± 0.064.

With IQDLRFNITVTMPLESVSFM, the amyloid nucleation score was 7.046 ± 0.058.

NYAQATRMFFNLMKSWLKMR: the amyloid nucleation score is -1.02 ± 1.1.

Turning to LYIDIRRSCLVCNGMSWRAG, the amyloid nucleation score was 5.865 ± 0.052.

Turning to ISNVNLTE, the amyloid nucleation score was -0.763 ± 0.4.

As to WRVGVK, the amyloid nucleation score came out at 0.312 ± 0.25.

Turning to TGYLVWFG, the amyloid nucleation score turned out to be 0.951 ± 0.3.

As for SSTFPPF, the amyloid nucleation score was -0.691 ± 0.41.

For the substance CDILYLNMFAIFDFFDPVKL, the amyloid nucleation score result is “inactive”.

As to QKHPGFKYHQNLRLVSLSKR, the amyloid nucleation score was -0.837 ± 0.45.

In turn, RVHSCCTGKIGYKGVIVISV returned an amyloid nucleation score of 0.051 ± 0.43.

The substance IGTEMLTVYIFTYSSA came in with an amyloid nucleation score of 0.416 ± 0.74.

VIPFISIRLCAAVRVFVPQS showed an amyloid nucleation score of 5.04 ± 0.075.

With RNMVVGVGRRP, the amyloid nucleation score is -0.15 ± 0.45.

Substance TEGYNMCDWCSSSLVKSVRM gave an amyloid nucleation score of -0.223 ± 0.49.

Consider IIILFQVQCHVVRLSRVHKC, for which the amyloid nucleation score was -0.658 ± 0.49.

With RRFMYIFYLDYFFKPLLRLN, the amyloid nucleation score was -0.369 ± 1.1.

In turn, RQFPGFSSYPTLEINFYICV came in with an amyloid nucleation score of 6.76 ± 0.069.

Consider VFIMRISCY, for which the amyloid nucleation score is -0.424 ± 1.1.

NFKCFTRRVNWESYITEVVR yielded an amyloid nucleation score of 3.19 ± 0.068.

On to LYYVMSPWLITSRAWDGSSS, for which the amyloid nucleation score stood at 0.778 ± 0.67.

The substance ICPRRS displayed an amyloid nucleation score of 0.474 ± 0.34.

With MLGHSWHF, the amyloid nucleation score result is “inactive”.

Substance ITDVFSDAACNRWQINYTQA returned an amyloid nucleation score of -0.832 ± 0.33.

SSFNTDFACSWVGYMAVVSM: the amyloid nucleation score is -0.771 ± 1.1.

As to RTVTNEGTCFNGWLCYAREG, the amyloid nucleation score was found to be 10.15 ± 0.063.

RCVSRTR yielded an amyloid nucleation score of 0.147 ± 1.1.

For the substance ISVYLSRSIFI, the amyloid nucleation score was -0.326 ± 1.

CVCSVYAGNFCLIVLVWLMV registered an amyloid nucleation score of 0.433 ± 0.74.

VNIRGTHVLVRVYSQGRNRA displayed an amyloid nucleation score of 8.528 ± 0.062.

Substance WSVDYDGCLCS displayed an amyloid nucleation score of -0.094 ± 0.45.

The substance KGALCLSV gave an amyloid nucleation score of -0.148 ± 0.39.

Consider VLLFLSMEVLNRNGMKVPVM, for which the amyloid nucleation score is 2.17 ± 0.16.

GYDVERDNFDCVVTKDELFW gave an amyloid nucleation score of -0.427 ± 0.21.

The substance AVVVREAFLLFLKAIERAGI gave an amyloid nucleation score of -1.31 ± 0.55.

HWSADDNFSSLQRLFVYMGR had an amyloid nucleation score of 4.583 ± 0.043.

For GIQGLSLYRLLSPALWSPSG, the amyloid nucleation score amounted to 0.168 ± 0.49.

In the case of LRPDYLERYFWLWHSTDKLF, the amyloid nucleation score was -1.14 ± 0.49.

The values above are taken from the supplement of paper PMC12042874.
